Measured values: patent US20090197330A1 (BIOMEDICS, published 2009)

What was measured:
human CD20 antigen [1] = target: T1, human CD20 antigen (human, UniProt P11836 1-297); assay: CD20/CHO cell-ELISA, antibody at 3 ng/ml
T1 construct: whole, on cells; also called CD20/CHO cells; CD20 on Raji cells
T1 sequence (looked up): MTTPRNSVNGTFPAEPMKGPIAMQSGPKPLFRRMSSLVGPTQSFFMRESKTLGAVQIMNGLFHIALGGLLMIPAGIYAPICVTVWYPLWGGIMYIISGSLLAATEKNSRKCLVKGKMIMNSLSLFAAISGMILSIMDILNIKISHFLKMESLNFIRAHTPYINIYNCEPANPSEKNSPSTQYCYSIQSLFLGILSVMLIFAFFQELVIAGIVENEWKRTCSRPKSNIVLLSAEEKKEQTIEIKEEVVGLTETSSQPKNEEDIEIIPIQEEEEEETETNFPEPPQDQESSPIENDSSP
From the text: (§1) The prepared 8 kinds of chimeric anti-CD20 monoclonal antibodies were examined for reactivity to the human CD20 antigen by the CD20/CHO cell-ELISA. Rituximab (c2B8) was used as a positive control. The values measured in the cell-ELISA (A492) reflect intensity of the binding property.

human CD20 antigen [2] = target: T1, human CD20 antigen; assay: CD20/CHO cell-ELISA, antibody at 1 ng/ml
From the text: as §1

human CD20 antigen [3] = target: T1, human CD20 antigen; assay: CD20/CHO cell-ELISA, antibody at 32 ng/ml
From the text: as §1

human CD20 antigen [4] = target: T1, human CD20 antigen; assay: CD20/CHO cell-ELISA, antibody at 100 ng/ml
From the text: as §1

human CD20 antigen [5] = target: T1, human CD20 antigen; assay: CD20/CHO cell-ELISA, antibody at 10 ng/ml
From the text: as §1

human CD20 antigen [6] = target: T1, human CD20 antigen; assay: CD20/CHO cell-ELISA, antibody at 320 ng/ml
From the text: (§2) Several murine anti-CD20 monoclonal antibodies and 2B8 were reacted by using 96-well plates to which the SB cells, Raji cells, CD20/CHO cells and CD20 CHO parent cell line were adhered.

human CD20 antigen [7] = target: T1, human CD20 antigen; assay: CD20/CHO cell-ELISA, antibody at 3 ng/ml; remark: listed apart in the source
From the text: as §2

human CD20 antigen [8] = target: T1, human CD20 antigen; assay: Raji cell-ELISA, antibody at 320 ng/ml
From the text: as §2

human CD20 antigen [9] = target: T1, human CD20 antigen; assay: SB cell-ELISA, antibody at 320 ng/ml
From the text: as §2

human CD20 antigen [10] = target: T1, human CD20 antigen; assay: CD20/CHO cell-ELISA, antibody at 10 ng/ml; remark: listed apart in the source
From the text: as §2

human CD20 antigen [11] = target: T1, human CD20 antigen; assay: SB cell-ELISA, antibody at 10 ng/ml
From the text: as §2

human CD20 antigen [12] = target: T1, human CD20 antigen; assay: CD20/CHO cell-ELISA, antibody at 1000 ng/ml
From the text: as §2

human CD20 antigen [13] = target: T1, human CD20 antigen; assay: CD20/CHO cell-ELISA, antibody at 100 ng/ml; remark: listed apart in the source
From the text: as §2

human CD20 antigen [14] = target: T1, human CD20 antigen; assay: SB cell-ELISA, antibody at 100 ng/ml
From the text: as §2

human CD20 antigen [15] = target: T1, human CD20 antigen; assay: SB cell-ELISA, antibody at 32 ng/ml
From the text: as §2

human CD20 antigen [16] = target: T1, human CD20 antigen; assay: Raji cell-ELISA, antibody at 1000 ng/ml
From the text: as §2

human CD20 antigen [17] = target: T1, human CD20 antigen; assay: Raji cell-ELISA, antibody at 10 ng/ml
From the text: as §2

human CD20 antigen [18] = target: T1, human CD20 antigen; assay: SB cell-ELISA, antibody at 1000 ng/ml
From the text: as §2

human CD20 antigen [19] = target: T1, human CD20 antigen; assay: Raji cell-ELISA, antibody at 32 ng/ml
From the text: as §2

human CD20 antigen [20] = target: T1, human CD20 antigen; assay: CD20/CHO cell-ELISA, antibody at 32 ng/ml; remark: listed apart in the source
From the text: as §2

human CD20 antigen [21] = target: T1, human CD20 antigen; assay: Raji cell-ELISA, antibody at 100 ng/ml
From the text: as §2

Binder	A492 (human CD20 antigen [1])	A492 (human CD20 antigen [2])	A492 (human CD20 antigen [3])	A492 (human CD20 antigen [4])	A492 (human CD20 antigen [5])	other results
chimeric anti-CD20 monoclonal antibody c1K1791 (antibody, V domains shown, Murine variable regions fused to human immunoglobulin H chain and L chain (kappa) constant regions of vector pNOW-Ab) VH: QIQLVQSGPELKKPGETVKISCKASGYTFTNFGVNWVKQAPGKGLKWMGWINTYTGEPSYADDFKGRFAFSLEASANTAYLQINNLKNDDMSTYFCTRRTNYYGTSYYYAMDYWGQGTSVTVSS VL: STVMTQTPKFLLVSAGDRVTITCKASQSVSNDVAWYQQKPGQSPKVLIYFASNRYTGVPDRFTGSGYGTDFTFTINTVQAEDLAVYFCQQDYSSPLTFGAGTKLELK	0.276 A492	0.108 A492	1.46 A492	2.23 A492	0.745 A492	–
murine anti-CD20 monoclonal antibody 1K1402 (antibody, V domains shown, Mouse monoclonal antibody from a hybridoma) VH: QVQLQQPGAELVKPGASVKMSCKASGFTFTSYNMHWVKQTPGQGLEWIGGIYPGNGDTSYNQKFKGKATLTADKSSSTAYMQLSSLTSEDSAVYYCARFYYYGSMGAMDYWGQGTSVTVSS VL: QIVLSQSPAILSASPGEKVTMTCRASSSVSYMHWYQQKPGSSPKPWIYATSNLASGVPARFSGSGSGTSYSLTITRVEAEDAATYYCQQWTFNPPTFGAGTKLELK	–	–	–	–	–	A492 (human CD20 antigen [6]): 1.57 A492; A492 (human CD20 antigen [7]): 0.174 A492; A492 (human CD20 antigen [8]): 0.525 A492; A492 (human CD20 antigen [9]): 0.4 A492; A492 (human CD20 antigen [10]): 0.389 A492; A492 (human CD20 antigen [11]): 0.066 A492; A492 (human CD20 antigen [12]): 1.88 A492; A492 (human CD20 antigen [13]): 1.49 A492; A492 (human CD20 antigen [14]): 0.152 A492; A492 (human CD20 antigen [15]): 0.095 A492; A492 (human CD20 antigen [16]): 1.23 A492; A492 (human CD20 antigen [17]): 0.061 A492; A492 (human CD20 antigen [18]): 0.763 A492; A492 (human CD20 antigen [19]): 0.102 A492; A492 (human CD20 antigen [20]): 0.824 A492; A492 (human CD20 antigen [21]): 0.214 A492
chimeric anti-CD20 monoclonal antibody c1K1712 (antibody, V domains shown, Murine variable regions fused to human immunoglobulin H chain and L chain (kappa) constant regions of vector pNOW-Ab) VH: QVQLQQPGAELVKPGASVKMSCKASGFTFTSYNLHWVKQTPGQGLEWIGAIYPGSGDTSYNQQFKGKATLTADKSSNTAYMQLNSLTSEDSAVYCCARSAMISTGNWYFDYWGQGTTLTVSS VL: QIVLSQSPAILSASPGEKVTMTCRASSSVSYMDWYQQKPGSSPKPWIYATSNLASGVPARFSGSGSGTSYSLTISRVEAEDTATYYCQQWTFNPPTFGSGTKLEIK	0.359 A492	0.145 A492	1.68 A492	2.29 A492	0.793 A492	–
Rituximab (c2B8) (antibody, V domains shown) VH: QVQLQQPGAELVKPGASVKMSCKASGYTFTSYNMHWVKQTPGRGLEWIGAIYPGNGDTSYNQKFKGKATLTADKSSSTAYMQLSSLTSEDSAVYYCARSTYYGGDWYFNVWGAGTTVTVSA VL: QIVLSQSPAILSASPGEKVTMTCRASSSVSYIHWFQQKPGSSPKPWIYATSNLASGVPVRFSGSGSGTSYSLTISRVEAEDAATYYCQQWTSNPPTFGGGTKLEIK	0.226 A492	0.088 A492	1.14 A492	2.15 A492	0.536 A492	–
chimeric anti-CD20 monoclonal antibody c1K0924 (antibody, V domains shown, Murine variable regions fused to human immunoglobulin H chain and L chain (kappa) constant regions of vector pNOW-Ab) VH: QVQLQQPGAELVKPGASVKMSCKASGYTFTSYNIHWVKQTPGQGLEWIGAIYPGNGDTSYNQKFKGKATLTSDKSSSTAYMQLSSLTSEDSAVYYCARMSTMITGFDYWGQGTTLTVSS VL: QIVLSQSPAILSASPGEKVTMTCRASSSVSYMHWYQQRPGSSPKPWIYATSNLASGVPARFSGSGSGTSYYFTISRVEAEDAATYYCQQWNSNPPTHGGGTKLEIK	0.186 A492	0.094 A492	0.724 A492	1.42 A492	0.391 A492	–
chimeric anti-CD20 monoclonal antibody c1K1736 (antibody, V domains shown, Murine variable regions fused to human immunoglobulin H chain and L chain (kappa) constant regions of vector pNOW-Ab) VH: QVQLQQPGAELVKPGASVKMSCKASGYTFTTYNLHWVKQTPGQGLEWIGGIYPGNGDTSYNQKFKVKATLTADKSSNTAYMQLSSLTSEDSAVYYCARWIYYGNYEGTLDYWGQGTSVTVSS VL: QIVLSQSPAILSSSPGEKVTMTCRASSSVSYMLWYQQKPGSSPEPWIYATSNLASGVPARFSGGGSGTSYSLTISRVEAEDAATYYCQQWTFNPPTFGGGTKLEIK	0.32 A492	0.122 A492	1.55 A492	2.43 A492	0.748 A492	–
chimeric anti-CD20 monoclonal antibody c1K1402 (antibody, V domains shown, Murine variable regions fused to human immunoglobulin H chain and L chain (kappa) constant regions of vector pNOW-Ab) VH: QVQLQQPGAELVKPGASVKMSCKASGFTFTSYNMHWVKQTPGQGLEWIGGIYPGNGDTSYNQKFKGKATLTADKSSSTAYMQLSSLTSEDSAVYYCARFYYYGSMGAMDYWGQGTSVTVSS VL: QIVLSQSPAILSASPGEKVTMTCRASSSVSYMHWYQQKPGSSPKPWIYATSNLASGVPARFSGSGSGTSYSLTITRVEAEDAATYYCQQWTFNPPTFGAGTKLELK	0.349 A492	0.116 A492	1.62 A492	2.45 A492	0.737 A492	–
murine anti-CD20 monoclonal antibody 1K1228 (antibody, V domains shown, Mouse monoclonal antibody from a hybridoma, purified on protein G) VH: QVQLQQPGAELVKPGASVKVSCKASGFTFTSYNLHWVKQTPGQGLVWIGAIYPGNGDTSYNQKFRGKATLTADISSSTAYMQLSSLTSEDSAVYYCARYYYGYDAMDYWGQGTSVTVSS VL: EIILTQSPTTMAASPGEKITITCSASSSISSYYLRWYQQKPGFSPKVLIYRTSNLASGVPARFSGSGSGTSYSLTIGTMEAEDVATYYCQQGNTVPLTFGSGTKLEIK	–	–	–	–	–	A492 (human CD20 antigen [6]): 2.7 A492; A492 (human CD20 antigen [7]): 0.265 A492; A492 (human CD20 antigen [8]): 1.17 A492; A492 (human CD20 antigen [9]): 0.931 A492; A492 (human CD20 antigen [10]): 0.572 A492; A492 (human CD20 antigen [11]): 0.082 A492; A492 (human CD20 antigen [12]): 3.06 A492; A492 (human CD20 antigen [13]): 2.09 A492; A492 (human CD20 antigen [14]): 0.452 A492; A492 (human CD20 antigen [15]): 0.192 A492; A492 (human CD20 antigen [16]): 1.68 A492; A492 (human CD20 antigen [17]): 0.148 A492; A492 (human CD20 antigen [18]): 1.26 A492; A492 (human CD20 antigen [19]): 0.326 A492; A492 (human CD20 antigen [20]): 1.27 A492; A492 (human CD20 antigen [21]): 0.678 A492
chimeric anti-CD20 monoclonal antibody c1K1228 (antibody, V domains shown, Murine variable regions fused to human immunoglobulin H chain and L chain (kappa) constant regions of vector pNOW-Ab) VH: QVQLQQPGAELVKPGASVKVSCKASGFTFTSYNLHWVKQTPGQGLVWIGAIYPGNGDTSYNQKFRGKATLTADISSSTAYMQLSSLTSEDSAVYYCARYYYGYDAMDYWGQGTSVTVSS VL: EIILTQSPTTMAASPGEKITITCSASSSISSYYLRWYQQKPGFSPKVLIYRTSNLASGVPARFSGSGSGTSYSLTIGTMEAEDVATYYCQQGNTVPLTFGSGTKLEIK	0.289 A492	0.12 A492	1.58 A492	2.23 A492	0.701 A492	–
chimeric anti-CD20 monoclonal antibody c1K1782 (antibody, V domains shown, Murine variable regions fused to human immunoglobulin H chain and L chain (kappa) constant regions of vector pNOW-Ab) VH: QVQLQQSGAELAKPGASVKMSCKASGYTFTSYWMHWVKQRPGQGLEWIGYITPSTGYTDYNKKFKDKATLTADRSSSTAYMHLSSLTSEDSAVYYCARSGPYFDVWGAGTTVTVSS VL: DILLTQSPAILFVSPGERVSLSCRASQNIGTSIHWYQQRTNGSPRLLIKYASESFSGIPSRFSGSGSGTDFTLSINSVESEDIADYYCQQSNSWPFTFGSGTKLEIK	0.169 A492	0.074 A492	1.02 A492	2.1 A492	0.505 A492	–
chimeric anti-CD20 monoclonal antibody c1K1422 (antibody, V domains shown, Murine variable regions fused to human immunoglobulin H chain and L chain (kappa) constant regions of vector pNOW-Ab) VH: QVQLQQPGAELVKPGASVKMSCRASGYTFTNYNMHWIKQTPGQGLEWIGAIYPGSGDTSYNRKFKGKATLTADTSSSTAYMQFSSLTSADSAVYYCARFTYYYGGTYGAMDYWGQGTSVTVSL VL: QIVLTQSPPIMSASLGEEITLTCSASSRVSYMLWYQQKSGTSPKLLIYSTSNLASGVPSRFSGSGSGTFYSLTISSVEAEDAADYYCHQWTSNPCTFGGGTKLEIK	0.151 A492	0.077 A492	0.912 A492	1.92 A492	0.357 A492	–
